Legend:
[1] = target: T1, human TG2 (Homo sapiens, UniProt P21980); experiment: 3H-putrescine incorporation TG activity assay with recombinant human TG2; assay type: biochemical
T1 sequence (P21980 1-687): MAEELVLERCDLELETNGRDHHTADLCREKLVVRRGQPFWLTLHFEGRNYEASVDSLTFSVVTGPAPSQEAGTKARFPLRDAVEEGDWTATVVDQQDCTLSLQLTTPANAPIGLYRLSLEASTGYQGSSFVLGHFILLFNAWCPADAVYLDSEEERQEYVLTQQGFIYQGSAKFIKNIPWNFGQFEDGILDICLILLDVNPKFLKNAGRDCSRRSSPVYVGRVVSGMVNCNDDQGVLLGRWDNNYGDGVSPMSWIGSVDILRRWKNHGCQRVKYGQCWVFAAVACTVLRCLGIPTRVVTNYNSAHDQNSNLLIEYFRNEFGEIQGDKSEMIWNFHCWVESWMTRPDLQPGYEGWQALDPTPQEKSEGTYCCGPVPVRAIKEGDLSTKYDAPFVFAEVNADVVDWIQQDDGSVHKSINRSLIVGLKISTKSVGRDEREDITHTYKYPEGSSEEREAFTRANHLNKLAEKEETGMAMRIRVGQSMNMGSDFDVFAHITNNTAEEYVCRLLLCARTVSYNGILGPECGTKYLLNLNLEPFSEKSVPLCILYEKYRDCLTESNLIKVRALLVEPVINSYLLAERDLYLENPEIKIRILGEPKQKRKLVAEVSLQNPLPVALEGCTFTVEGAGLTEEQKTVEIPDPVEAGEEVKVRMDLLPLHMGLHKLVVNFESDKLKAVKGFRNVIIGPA
Description: To determine an IC50 value for each antibody against human, rat and mouse the ^3H Putrescine assay was used. 100 ng of human TG2 or 25 ng of mouse and rat TG2 was used to generate a reaction where approximately 3000 cpm of Putrescine were incorporated per hour in 10 ul of the reaction mixture. Serial dilutions of each antibody were then applied starting from adding 500 ng (5 ug/ml final concentration) to the reaction mixture and incubated with the TG2 for 20 minutes prior to activating the reaction. IC50 values were calculated by determining the concentration at which the enzymatic rate of reaction was reduced by 50% using an appropriate curve fit in graphpad prism. Values are expressed as the amount of IgG in […] in the reaction that would inhibit 1 ng of TG2.
TG activity is measured by the Ca^2+ dependent incorporation of ^3H-putrescine into N′,N′-dimethylcasein. Recombinant human TG2 (100 ng) was pre-incubated for twenty minutes at room temperature with the test sample (conditioned medium or purified IgG) before starting the reaction. Twenty-five μl of reaction mix (5 μl of 25 mM CaCl2, 5 μl of 40 mM dithiothreitol, 5 μl ^3H-putrescine mix, and 10 μl 25 mg/ml of N,N′ dimethylcasein (replace 25 mM CaCl2 with 100 mM EDTA for a non-enzymatic control) was added to start the reaction and the samples incubated at 37° C. for up to 1 hour. Aliquots of 10 μl were spotted onto a strip of 3 MM Whatman filter paper and plunged immediately into ice-cold 10% trichloroacetic acid (TCA) in order to precipitate the cross-linked proteins typically at time 0, 10, 30 and 60 minutes into the reaction. After three extensive washes in ice-cold 5% TCA followed by 3 rinses with ice-cold 95% ethanol, the air dried filter was counted in 2 ml of scintillation fluid (Ultima Gold Packard, Perkin Elmer). The rate of reaction was calculated. 1 TG unit is equivalent to the incorporation of 1 nmol of putrescine per hour at 37° C.

[2] = target: T2, extracellular TG2 in human HK-2 cells (Homo sapiens, UniProt P21980); experiment: Extracellular TG activity in HK-2 cells, biotin cadaverine incorporation into fibronectin (Example 1); assay type: cell-based
T2 construct: endogenous in cells; host or cells: HK-2 (kidney proximal tubular epithelium)
T2 sequence (P21980 1-687): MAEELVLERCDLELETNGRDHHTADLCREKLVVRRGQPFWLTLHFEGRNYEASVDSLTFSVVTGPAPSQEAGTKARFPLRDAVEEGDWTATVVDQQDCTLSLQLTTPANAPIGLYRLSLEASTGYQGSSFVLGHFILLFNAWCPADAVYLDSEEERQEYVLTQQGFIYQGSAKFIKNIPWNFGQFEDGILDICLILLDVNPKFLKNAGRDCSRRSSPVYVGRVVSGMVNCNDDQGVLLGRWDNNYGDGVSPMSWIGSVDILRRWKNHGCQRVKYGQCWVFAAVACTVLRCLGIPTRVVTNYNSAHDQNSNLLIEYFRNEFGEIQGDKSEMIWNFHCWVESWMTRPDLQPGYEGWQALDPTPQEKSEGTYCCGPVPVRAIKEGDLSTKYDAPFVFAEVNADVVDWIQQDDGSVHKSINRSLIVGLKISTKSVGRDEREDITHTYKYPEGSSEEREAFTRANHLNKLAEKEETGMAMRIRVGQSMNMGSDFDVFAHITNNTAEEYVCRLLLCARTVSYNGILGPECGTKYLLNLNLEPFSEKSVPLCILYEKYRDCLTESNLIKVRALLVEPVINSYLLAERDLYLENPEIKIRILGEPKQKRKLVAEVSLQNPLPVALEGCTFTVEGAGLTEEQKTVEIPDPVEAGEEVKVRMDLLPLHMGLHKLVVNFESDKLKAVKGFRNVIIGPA
Description: HK2 cells were plated onto fibronectin and incubated for 2 hours in the presence of 0.1M biotin cadaverine with either 4 ng/μl of human anti-TG2 antibody (AB1) (part A), 4 ng/μl of human anti-TG2 antibody (DC1) (part B) or 400 μM of the site-specific pan TG inhibitor 1,3-Dimethyl-2-[(2-oxo-propyl)thio]imidazolium chloride. […] Changes in optical density were measured at 450 nm in a 96 well plate reader. Data represents mean OD at 450 nm corrected to 1 mg of cell protein. n=6 wells per experimental group.
Extracellular TG activity was measured by modified cell ELISA. HK-2 epithelial cells were harvested using 0.1M EDTA or 0.25% trypsin/EDTA and plated at a density of 8×10^4 cells/well in serum free medium onto a 96 well plate that had been coated overnight with 100 μl/well of fibronectin (5 μg/ml in 50 mM Tris-HCl pH 7.4) (Sigma, Poole UK). Cells were allowed to attach for 2.5 h at 37° C. in the presence of the 0.1 mM biotin cadaverine [N-(5 amino pentyl biotinamide) trifluoroacetic acid] (Molecular Probes, Eugene Oreg., USA). Plates were washed twice with 3 mM EDTA/PBS and cells removed with 0.1% (w/v) deoxycholate in 5 mM EDTA/PBS. The supernatant was collected and used for protein determination. […] The reaction was stopped with 50 μl 2.5 M H2SO4 and the absorbance read at 450 nm.

[3] = target: T3, HepG2 cell lysate proteins (Homo sapiens, UniProt P21980); experiment: Western blot of HepG2 lysate immunoprobed with AB1; assay type: binding; conditions: 25 μg of lysate
T3 construct: endogenous in cells; host or cells: HepG2
T3 sequence (P21980 1-687): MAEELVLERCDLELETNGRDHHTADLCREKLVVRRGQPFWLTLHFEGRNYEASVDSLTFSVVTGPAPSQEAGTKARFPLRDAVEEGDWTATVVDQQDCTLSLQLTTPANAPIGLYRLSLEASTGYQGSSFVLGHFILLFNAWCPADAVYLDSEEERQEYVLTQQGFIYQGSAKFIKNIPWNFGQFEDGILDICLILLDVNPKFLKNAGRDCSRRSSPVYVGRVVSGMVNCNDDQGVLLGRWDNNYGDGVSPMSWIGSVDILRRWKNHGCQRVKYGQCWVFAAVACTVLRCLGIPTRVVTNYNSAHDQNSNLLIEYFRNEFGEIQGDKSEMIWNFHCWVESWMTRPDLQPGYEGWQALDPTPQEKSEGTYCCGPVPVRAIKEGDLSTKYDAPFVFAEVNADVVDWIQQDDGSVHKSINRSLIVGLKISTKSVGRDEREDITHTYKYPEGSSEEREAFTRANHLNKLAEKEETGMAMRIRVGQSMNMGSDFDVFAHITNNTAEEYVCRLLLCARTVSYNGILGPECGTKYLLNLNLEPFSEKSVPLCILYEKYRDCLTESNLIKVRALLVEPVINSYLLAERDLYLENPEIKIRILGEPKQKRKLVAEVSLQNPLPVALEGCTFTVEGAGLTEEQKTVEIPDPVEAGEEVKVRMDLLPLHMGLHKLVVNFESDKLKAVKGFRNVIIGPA
Description: B: HepG2 cells were exposed to increasing glucose concentrations for 96 hours to up regulate TG2 expression. Cells were harvested, lysed and 25 ug of lysate fractionated by SDS-PAGE, western blotted and then immunoprobed with a 1 ng/ml solution of AB1 IgG using a chemiluminesant end point.
Confirmation of TG2 core protein synthesis as well as TG2 and TG2 core reactivity levels following immunisation were all measured by western blotting. Recombinant proteins (10 to 80 ng) were loaded on a 10% (w/v) polyacrylamide denaturing or non-denaturing gel as required and transferred onto PVDF membranes (Transblot SD, Biorad, UK) for one hour at 100 V. Membranes were blocked overnight at 4° C. with 3% (w/v) BSA in TBS/0.1% (v/v) Tween 20. The membranes were then washed and probed with monoclonal mouse anti-transglutaminase antibodies in TBS/Tween containing 1% BSA. For proof of recombinant TG2 core protein and as a positive control for antibody screening the commercial antibody Cub7402 (neomarkers) was used at a 1:1000 dilution. Binding of primary antibody was detected with the anti-mouse gamma-chain-HRP linked secondary antibody (Sigma, Poole, UK). Bands were visualised using ECL chemiluminescent detection system (Amersham, UK).

[4] = target: T4, TG2 activity in HepG2 cell homogenate (Homo sapiens, UniProt P21980); experiment: 3H putrescine incorporation TG activity assay in HepG2 cell homogenate; assay type: biochemical
T4 construct: endogenous in cells; host or cells: HepG2
T4 sequence (P21980 1-687): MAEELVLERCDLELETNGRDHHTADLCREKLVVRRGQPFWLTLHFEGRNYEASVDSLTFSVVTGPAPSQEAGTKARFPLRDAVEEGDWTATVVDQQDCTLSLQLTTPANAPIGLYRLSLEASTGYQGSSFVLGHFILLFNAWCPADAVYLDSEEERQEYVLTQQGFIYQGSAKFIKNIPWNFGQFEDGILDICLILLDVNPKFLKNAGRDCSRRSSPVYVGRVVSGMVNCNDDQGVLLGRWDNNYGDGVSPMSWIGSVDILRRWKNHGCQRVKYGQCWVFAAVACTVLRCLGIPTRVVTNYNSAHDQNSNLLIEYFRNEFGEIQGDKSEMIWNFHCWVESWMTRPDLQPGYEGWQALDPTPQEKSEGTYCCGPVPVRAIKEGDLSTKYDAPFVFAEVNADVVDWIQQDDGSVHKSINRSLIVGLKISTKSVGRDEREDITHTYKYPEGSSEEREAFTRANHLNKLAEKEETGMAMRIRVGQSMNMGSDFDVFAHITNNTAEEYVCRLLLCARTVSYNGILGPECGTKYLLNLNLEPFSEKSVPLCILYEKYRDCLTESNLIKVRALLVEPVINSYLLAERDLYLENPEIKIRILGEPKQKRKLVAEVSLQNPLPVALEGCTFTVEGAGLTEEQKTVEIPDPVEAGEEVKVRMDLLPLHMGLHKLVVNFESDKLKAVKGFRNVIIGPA
Description: A: Hep2G cells were lysed and 45 ug of protein mixed with 750 ng of IgG from AB1, DH2, DD9, BB7, DC1 and EH6 for 20 minutes. This was subsequently assayed using the ^3H Putrescine incorporation TG activity assay with sampling over 1 hour. The rate of reaction was calculated and expressed as a percentage of the same lysate incubated with a random antibody (MAB002). Data represents the mean percentage inhibition ±SEM from 2 separate experiments done in duplicate. *p<0.05
HepG2 cells were kindly supplied by Richard Ross (University of Sheffield). Cells were routinely grown at 37° C. in a 95% humidified atmosphere of 5% CO2 in DMEM/4.5 g per liter glucose supplemented with 10% foetal calf serum (FCS), 100 IU penicillin and 100 μg/ml streptomycin, 2 mM I-glutamine (all GIBCO). Two million cells were seeded on a 10 cm dishes and grown for 48 hours. Cells were lysed in 250 μl of STE buffer (0.32M sucrose, 5 mM Tris, 1 mM EDTA containing protease inhibitors Phenylmethylsulphonyl fluoride (1 mM), benzamidine (5 mM), and leupeptin (10 μg/ml) and sonicated on ice to produce a cell lysate usable in TG2 activity assay.
The same protocol was used to assess TG inhibition in cell lysates by replacing the 25 μl of recombinant protein with 25 μl of cell lysate.

B1: AB1: murine monoclonal anti-TG2 IgG, Group 1 (epitope amino acids 304 to 326); VH and VK in FIGS. 7 and 18 (antibody, V domains shown)
VH: EVQLVESGGGLVKPGGSLKLSCAASGFTLSSSAMSWVRQTPDRRLEWVATISVGGGKTYYPDSVKGRFTISRDNAKNTLYLQMNSLRSEDTAMYYCAKLISLYWGQGTTLTVSS
VL: DIKMTQSPSSMYASLGERVTITCKASQDINSYLTWFQQKPGKSPKTLIYRTNRLFDGVPSRFSGSGSGQDFFLTISSLEYEDMGIYYCLQYDDFPYTFGGGTKLEIK
[1]; amount of IgG in the reaction that would inhibit 1 ng of TG2, 100 ng human TG2
  IC50 against human TG2: 0.011 µg/mL
[1]; initial screen of conditioned medium, 100 ng of TG2
  hybridoma supernatant ability to inhibit TG2 activity: able to inhibit TG2 activity
[2]; 4 ng/ul in the culture media
  inhibition of extracellular TG activity: 60%
[2]; applied to the culture media
  inhibition of extracellular TG2 in human HK-2 cells (in words): able to inhibit TG2 successfully
[3]
  off target association in HepG2 lysate: no off target association
[4]
  inhibition of TG2 in human Hep2G cells (in words): able to inhibit TG2 successfully
[4]; 0.5 μg of antibody, 45 ug lysate protein
  inhibition of TG2 activity in HepG2 homogenate: 70%

— US10005846B2, “Anti-transglutaminase 2 antibodies” (MEDICAL RESEARCH COUNCIL TECHNOLOGY, priority 2012, dated 2018)
